Laboratory results as given in IntAct's records for PubMed 25910212.

B1: Mothers against decapentaplegic homolog 3 (Homo sapiens), P84022 (parent)
chain: MSSILPFTPPIVKRLLGWKKGEQNGQEEKWCEKAVKSLVKKLKKTGQLDELEKAITTQNVNTKCITIPRSLDGRLQVSHRKGLPHVIYCRLWRWPDLHSHHELRAMELCEFAFNMKKDEVCVNPYHYQRVETPVLPPVLVPRHTEIPAEFPPLDDYSHSIPENTNFPAGIEPQSNIPETPPPGYLSEDGETSDHQMNHSMDAGSPNLSPNPMSPAHNNLDLQPVTYCEPAFWCSISYYELNQRVGETFHASQPSMTVDGFTDPSNSERFCLGLLSNVNRNAAVELTRRHIGRGVRLYYIGGEVFAECLSDSAIFVQSPNCNQRYGWHPATVCKIPPGCNLKIFNNQEFAALLAQSVNQGFEAVYQLTRMCTIRMSFVKGWGAEYRRQTVTSTPCWIELHLNGPLQWLDKVLTQMGSPSIRCSSVS
B2: Glycophorin-B (Homo sapiens), P06028 (parent)
chain: MYGKIIFVLLLSEIVSISALSTTEVAMHTSTSSSVTKSYISSQTNGETGQLVHRFTVPAPVVIILIILCVMAGIIGTILLISYSIRRLIKA
B3: Mitochondrial import inner membrane translocase subunit Tim8 A (Homo sapiens), O60220 (parent)
chain: MDSSSSSSAAGLGAVDPQLQHFIEVETQKQRFQQLVHQMTELCWEKCMDKPGPKLDSRAEACFVNCVERFIDTSQFILNRLEQTQKSKPVFSESLSD
B4: Inactive peptidyl-prolyl cis-trans isomerase FKBP6 (Homo sapiens), O75344 (parent)
chain: MGGSALNQGVLEGDDAPGQSLYERLSQRMLDISGDRGVLKDVIREGAGDLVAPDASVLVKYSGYLEHMDRPFDSNYFRKTPRLMKLGEDITLWGMELGLLSMRRGELARFLFKPNYAYGTLGCPPLIPPNTTVLFEIELLDFLDCAESDKFCALSAEQQDQFPLQKVLKVAATEREFGNYLFRQNRFYDAKVRYKRALLLLRRRSAPPEEQHLVEAAKLPVLLNLSFTYLKLDRPTIALCYGEQALIIDQKNAKALFRCGQACLLLTEYQKARDFLVRAQKEQPFNHDINNELKKLASCYRDYVDKEKEMWHRMFAPCGDGSTAGES
partner: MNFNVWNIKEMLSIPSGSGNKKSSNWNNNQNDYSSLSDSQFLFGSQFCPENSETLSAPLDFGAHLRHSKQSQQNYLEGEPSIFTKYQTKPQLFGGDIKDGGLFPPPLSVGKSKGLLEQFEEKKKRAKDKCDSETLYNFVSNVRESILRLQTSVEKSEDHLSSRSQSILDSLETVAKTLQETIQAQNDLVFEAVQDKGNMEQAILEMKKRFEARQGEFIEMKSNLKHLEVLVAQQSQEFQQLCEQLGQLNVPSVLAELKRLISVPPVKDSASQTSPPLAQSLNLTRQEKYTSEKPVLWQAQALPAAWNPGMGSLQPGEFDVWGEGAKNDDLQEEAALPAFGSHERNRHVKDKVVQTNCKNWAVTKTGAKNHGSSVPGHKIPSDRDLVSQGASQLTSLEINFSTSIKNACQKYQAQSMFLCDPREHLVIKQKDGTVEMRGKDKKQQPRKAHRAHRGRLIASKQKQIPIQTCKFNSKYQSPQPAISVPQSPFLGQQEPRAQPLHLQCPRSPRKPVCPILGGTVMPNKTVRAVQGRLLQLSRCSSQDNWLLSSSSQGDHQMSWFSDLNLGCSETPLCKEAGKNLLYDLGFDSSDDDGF
B5: EF-hand domain-containing protein 1 (Homo sapiens), Q5JVL4 (parent)
chain: MVSNPVHGLPFLPGTSFKDSTKTAFHRSQTLSYRNGYAIVRRPTVGIGGDRLQFNQLSQAELDELASKAPVLTYGQPKQAPPADFIPAHVAFDKKVLKFDAYFQEDVPMSTEEQYRIRQVNIYYYLEDDSMSVIEPVVENSGILQGKLIKRQRLAKNDRGDHYHWKDLNRGINITIYGKTFRVVDCDQFTQVFLESQGIELNPPEKMALDPYTELRKQPLRKYVTPSDFDQLKQFLTFDKQVLRFYAIWDDTDSMYGECRTYIIHYYLMDDTVEIREVHERNDGRDPFPLLMNRQRVPKVLVENAKNFPQCVLEISDQEVLEWYTAKDFIVGKSLTILGRTFFIYDCDPFTRRYYKEKFGITDLPRIDVSKREPPPVKQELPPYNGFGLVEDSAQNCFALIPKAPKKDVIKMLVNDNKVLRYLAVLESPIPEDKDRRFVFSYFLATDMISIFEPPVRNSGIIGGKYLGRTKVVKPYSTVDNPVYYGPSDFFIGAVIEVFGHRFIILDTDEYVLKYMESNAAQYSPEALASIQNHVRKREAPAPEAESKQTEKDPGVQELEALIDTIQKQLKDHSCKDNIREAFQIYDKEASGYVDRDMFFKICESLNVPVDDSLVKELIRMCSHGEGKINYYNFVRAFSN
partner: B4 partner

Variants of: B1
Settings: with wwp1_human WWP1, Q9H0M0

| effect of a mutation on the interaction | Variant |
| --- | --- |
| with no effect | N197I |
| with no effect | I170V |

Variants of: B1
Settings: with crx_human CRX

| effect of a mutation on the interaction | Variant |
| --- | --- |
| with no effect | N197I |
| with no effect | I170V |

Variants of: B1
Settings: with wwp2_human WWP2, O00308

| effect of a mutation on the interaction | Variant |
| --- | --- |
| with no effect | N197I |
| with no effect | I170V |

Variants of: B1
Settings: with smad4_human SMAD4, Q13485

| effect of a mutation on the interaction | Variant |
| --- | --- |
| with no effect | N197I |
| with no effect | I170V |

Variants of: B1
Settings: with meox2_human MEOX2, P50222

| effect of a mutation on the interaction | Variant |
| --- | --- |
| with no effect | N197I |
| with no effect | I170V |

Variants of: B1
Settings: with ccd33_human CCDC33, Q8N5R6

| effect of a mutation on the interaction | Variant |
| --- | --- |
| with no effect | N197I |
| with no effect | I170V |

Variants of: B2
Settings: with ubql1_human UBQLN1, Q9UMX0

| effect of a mutation on the interaction | Variant |
| --- | --- |
| with no effect | T48M |

Variants of: B3
Settings: with stam2_human STAM2, O75886

| effect of a mutation on the interaction | Variant |
| --- | --- |
| disrupting interaction strength | MDSSSSSSAAGLGAVDPQLQHFIEVETQKQRFQQLVHQMTELCWEKCMDKPGPKLDSRAEACFVNWVERFIDTSQFILNRLEQTQKSKPVFSESLSD [C66W] |

Variants of: B4
Settings: with iho1_human IHO1, Q8IYA8

| effect of a mutation on the interaction | Variant |
| --- | --- |
| with no effect | MGGSALNQGVLEGDDAPGQSLYERLSQRMLDISGDRGVLKDVIREGAGDLVAPDASVLVKYSGYLEHMDRPFDSNYFRKTPRLMKLGEDITLWGMELGLLSMRRGELARFLFKPNYAYGTLGCPPLIPPNTTVLFEIELLDFLDCAESDKFCALSAEQQDQFPLQKVLKVAATEREFGNYLFRQNRFYDAKVRYKRALLLLHRRSAPPEEQHLVEAAKLPVLLNLSFTYLKLDRPTIALCYGEQALIIDQKNAKALFRCGQACLLLTEYQKARDFLVRAQKEQPFNHDINNELKKLASCYRDYVDKEKEMWHRMFAPCGDGSTAGES [R202H] |
| with no effect | MGGSALNQGVLEGDDAPGQSLYERLSQRMLDISGDRGVLKDVIREGAGDLVAPDASVLVKYSGYLEHMDRPLDSNYFRKTPRLMKLGEDITLWGMELGLLSMRRGELARFLFKPNYAYGTLGCPPLIPPNTTVLFEIELLDFLDCAESDKFCALSAEQQDQFPLQKVLKVAATEREFGNYLFRQNRFYDAKVRYKRALLLLRRRSAPPEEQHLVEAAKLPVLLNLSFTYLKLDRPTIALCYGEQALIIDQKNAKALFRCGQACLLLTEYQKARDFLVRAQKEQPFNHDINNELKKLASCYRDYVDKEKEMWHRMFAPCGDGSTAGES [F72L] |

Variants of: B5
Settings: with iho1_human IHO1, Q8IYA8

| effect of a mutation on the interaction | Variant |
| --- | --- |
| with no effect | M448T |
